For nine sequences, protein production results are on record in a protein production outcome set (Wang et al. 2014).

This data set can be described thus: label from the status in PepcDB records.
For “MGRPRYLAYTRQIAMKSWRKAVVGTQATVGDAIAAIESGSIQIALVLDDQNRLLGVVTDGDVRRGLLRGIPLTGLATDIMNRVPVSAPATLSRDDRLHLMRQKSIKQLPLVDEGGHLVVVETLDELLEPRHYANPVLIMAGGLGERLGALTRDVPKPMLNVGGRPLLETIVRNVVQQGFRNIYISVNYKAETIKDYFADGAAFGANIQYVHETERLGTAGALGLFPAPPDLPMIVTNGDILTTINYGALLDFHNGTPAEATMAVREHKVHVPYGVVSTSDGFLQAIREKPTESWFVSAGIYVIGSSVFGHVAPGVSIDMPTVLERVIAGKGRVAVYPIREYWLDIGRLEDFEQAHAEFHEVFPLEHHHHHH”, the protein production result is on record as “not failed”.
Under “MGRRPSSSHKVSSGKISARPSLHCERGGFMRKTFLAPLTVALCALAAAQTPPPAPIDRPLPAPEPPATATVTRNEPTPQQFTPDKLARLKVPAGFKVSVMATELGNARMLHVMPDGGIYLSRRQNGDIWYLKDVNGDGTIDATERRRVADQLKLVHGIDTRQGKLYAVGEKTIWVMDIARDGTLSVPRVFADNFPDAGQHPARQLGWGPDGYLYASFGATNNDAPTQNPEEATILRIRPDGQVREVYARGLRHTIGFGWHPVTKTFYGMDQGSDWHGDNIPPEELNVIKRGKNYGWPFCYGAKNPDPFVNVANIPGKITKAEYCATTEPSTLNYTAHAAAIALKFYTGTQFPAEFRNDAFVTFRGSWNRNEPSGYEVARVVFDAQNKPEKIEPFVTGFVYQEGGEWKQFGRVAGLAVYTDGSLLFTDDQSGVIYRVQYVGGQK” stands “failed”.
“MGRTSKDKRDVYYRLAKENGWRARSAFKLLQLDKEFQLFQGVTRAVDLCAAPGSWSQVLSQKIGGQGSGHVVAVDLQAMAPLPGVVQIQGDITQLSTAKEIIQHFKGCPADLVVCDGAPDVTGLHDVDEYMQAQLLLAALNIATHVLKPGGCFVAKIFRGRDVTLLYSQLQVFFSSVLCAKPRSSRNSSIEAFAVCQGYDPPEGFIPDLSKPLLDHSYDPDFNQLDGPTRIIVPFVTCGDLSSYDSDRSYPLDLEGGSEYKYTPPTQPPISPPYQEACTLKRKGQLAKEIRPQDCPISRVDTFPQPLAAPQCHTLLAPEMEDNEMSCSP”: the protein production entry was “failed”.
Regarding “MGRVIVLGEVLLVGLRFVFVLLIYIFVWHVLRLMYLELGLAPAQSSRKRPVLVVLDAKNGGAKRGESYPLGENISIGRDNHNDIIINDSHVSARHAVITRQGREWKILDLDSTNGTYVNGLRLTGPHSLRPGDKISIGGVTFKVGWEDASRSPFPYRTGAAR”, the protein production result is listed as “failed”.
For the sequence “MGSFDDVIGNHQADTAMIVQISADRKEINLVSIPRDSLVDVPQCETSKGTIPAQYNVMFNSIFAGAYKTGGDLSSAASCTLNAVNSLTGLNIQNFIVVDFAGLVKMIDSVGGVDLCIPQNVNDPYTGLNLDKGMHHLDGVAATQYARIRHGIGDGSDTSRTTRQQYLIKQLMSEALSKNLFTDTAQLYQLAKSALKSLNISQGMADTAALAGLAMSLKNFTMTNLQTQTVPVVPAPSDPNRSVWTDEADNLWEKMRAGKPIFDTADSNSGGSSDTSSDNSASSDDSGTTDSNQSDTTAETPDPVTGLITKSDGTLVDPSTGGTVDPDDGSIHDATTGQYIGLADRYLNATVCAVPAKNLEHHHHHH”, the protein production entry was “not failed”.
Under “MGSKKQIRVQNISHDNIYSGLRCFVDGSWKGSDKFSGLGWFCRSSNGDSPTMGAANLRRSLYPLHTEVEALLWSMKCMIGADNQEVAFFTDYSDLVKMVSSPTE” stands “failed”.
Under “MGSLMSGWDSRVRDPKSVRRCKSLTREEIDTFWKTKKKNEEEEHVQAFSKLVTQEGAQSQAKEKKSVDDLFENQSKSSGWWRKTYWAFLNEPREEEGRPNNYVSQFKVAHIAKIAGS” stands “failed”; under “MGSRLAESSTPMKACEEVGRPSFTSEQTASSCVIDVRDNARISSASSDGTEVESVGTAIKGELDRTARPTFTAGKNKSVRFECDLDQSNSSNSSENGSSRKPEMGGKICFTVSSPNPTPLKLSDEMQTPGTIYPANMESGGRGRPRIRSQFVHSVSNIMENASLYKVYKDSHEGLDYEEQIEAETPSSETYGEKVEESSDEKLSKFEASFSPWLNQINENIAALNERTPGVGVITPGDRPIIGLVAAQWIENEQTEISPKMWDGNGIPNSTTKYKEDQKVSWHATPFEVRLEKALSEEGGQSLFPQRKLEVMMEEVEGDTDISQLHHSVQPNSVVSF”, “failed”.
“MGSSHHHHHHSSGLVPRGSHMFKLTPAAAEQVLKAAKQGGTEGMCLRLAAGRNPDGSIDYRMGFDDLTEDDIRLTSEGVEIVIAPDYVSLLDQTTLDYVELEPGQFHFIFLNPRDPTYRPPSGG”: the protein production result is “not failed”.
